# Numbering of substitutions follows the chain as printed. Names and notes keep the numbering of the source. Marks after values point to notes of the source that are not given here.
# B1: M344E-Gal-T1: bovine β4Gal-T1 catalytic domain (C342T) with Met344 mutated to glutamic acid (protein, listed as Bos taurus)
# chain: MKFREPLLGGSAAMPGASLQRACRLLVAVCALHLGVTLVYYLAGRDLRRLPQLVGVHPPLQGSSHGAAAIGQPSGELRLRGVAPPPPLQNSSKPRSRAPSNLDAYSHPGPGPGPGSNLTSAPVPSTTTRSLTACPEESPLLVGPMLIEFNIPVDLKLIEQQNPKVKLGGRYTPMDCISPHKVAIIILFRNRQEHLKYWLYYLHPMVQRQQLDYGIYVINQAGESMFNRAKLLNVGFKEALKDYDYNCFVFSDVDLIPMNDHNTYRCFSQPRHISVAMDKFGFSLPYVQYFGGVSALSKQQFLSINGFPNNYWGWGGEDDDIYNRLAFRGMSVSRPNAVIGKCREIRHSRDKKNEPNPQRFDRIAHTKETMLSDGLNSLTYMVLEVQRYPLYTKITVDIGTPS
# B2: M344A: Met344 mutant of β4Gal-T1, Met344 to Ala (protein, listed as Bos taurus)
# chain: B1 chain with E344A
# B3: M344S: Met344 mutant of β4Gal-T1 (protein, listed as Bos taurus)
# chain: B1 chain with E344S
# B4: M344Q: Met344 mutant of β4Gal-T1, Met344 to Gln (protein, listed as Bos taurus)
# chain: B1 chain with E344Q
# Columns and labels:
# [1] = β4Gal-T enzyme assay, specific activity in the presence of various metal ions; assay type: biochemical, bovine; conditions: 500 μM UDP-Gal, 25 mM GlcNAc; for Catalytic Activity in the Presence of Various Metal Ions: Co: 0.1 mM Co^2+; for Catalytic Activity in the Presence of Various Metal Ions: Zn: 0.1 mM Zn^2+; for Catalytic Activity in the Presence of Various Metal Ions: Ca / Catalytic Activity in the Presence of Various Metal Ions: Mg / Catalytic Activity in the Presence of Various Metal Ions: Mn / Catalytic Activity in the Presence of Various Metal Ions: Sr: 5 mM metal ion
# Experimental: Protein concentrations were measured using the Bio-Rad Protein Assay kit, based on the method of Bradford and further verified on SDS-PAGE gels using standard protein concentration markers. An in vitro assay procedure for Gal-T1 has been reported previously (Ramakrishnan et al., J. Mol. Biol., 310:205 (2001)). The activities were measured using UDP-Gal as sugar nucleotide donor, and GlcNAc as the acceptor sugar. For the specific activity measurements, a 100 μL incubation mixture containing 25 mM GlcNAc, 5 mM MnCl2 or MgCl2, 20 mM Tris-HCl pH 8.0, 500 μM UDP-Gal, 500 ng M344H-Gal-T1 or 30 ng of C342T-Gal-T1 and 0.5 μCi ^3H-UDP-Gal was used for each Gal-T reaction. The incubation was carried out at 30° C. for 15 minutes. The reaction was terminated by adding of 200 μl cold water, and the mixture was passed through a 0.5 mL bed volume column of AG 1-X8 […] resin (Bio-Rad) to remove any unreacted ^3H-UDP-Gal. The column was washed successively with 300, 400 and 500 μl of cold water, and the column flow-through was diluted with Biosafe scintillation fluid; radioactivity was measured with a Beckman counter. A reaction without the acceptor sugar was used as a control. Only 0.1 mM concentration of ZnCl2 or CoCl2 was used whenever Zn^2+ or Co^2+ was used during the enzyme assay.
# [2] = Metal ion activation curve, metal binding constants for Mn^2+; assay type: biochemical, bovine
# Description: The activation curve of M344E-Gal-T1, using Mn^2+, is strikingly different from that of the wild-type enzyme (FIGS. 1A and 1B). In contrast to the wild type enzyme, the velocity curve obtained with the Mn^2+ concentration for the M344E-Gal-T1 mutant is not sigmoidal. On the other hand, the same curve for the M344H-Gal-T1 mutant in the presence of the Mg^2+ is sigmoidal (FIG. 1C). The observation that activation of the wild type enzyme by metal ions is sigmoidal has been interpreted as involving two metal binding sites in the enzyme: one with high affinity (Kd1), which is associated with low velocity, and a second site with low affinity (Kd2), which is associated with high velocity (Powell and Brew, J. Biol. Chem., 251:3645 (1976); Boeggeman and Qasba, Glycobiology, 12:395 (2002)). […] The values of the dissociation constant (Kd) for Mn^2+ of the mutant are quite different from that of the wild type (Table IV).
# The enzyme activation data at various concentrations of Mg^2+ were fitted to an equation describing metal binding to a high affinity site (K1) to generate an enzyme form with a low kcat (V1) and to a second, lower affinity site (K2) to generate a form with a higher kcat (V2) (Boeggeman and Qasba, Glycobiology, 12:395 (2002)): […]
Molecule,Catalytic Activity in the Presence of Various Metal Ions: Co [1],Catalytic Activity in the Presence of Various Metal Ions: Zn [1],Catalytic Activity in the Presence of Various Metal Ions: Ca [1],Catalytic Activity in the Presence of Various Metal Ions: Mg [1],Catalytic Activity in the Presence of Various Metal Ions: Mn [1],Catalytic Activity in the Presence of Various Metal Ions: Sr [1],K1 compared with binding to the primary site of the wild type ([2]; Mn^2+),"Kd ([2]; single metal binding site model, derived from FIG. 1B, read-out: binding constant K1 for Mn^2+)"
B1,0.24 picomoles per minute per nanogram,0.27 picomoles per minute per nanogram,0.01 picomoles per minute per nanogram,0 picomoles per minute per nanogram,0.32 picomoles per minute per nanogram,0.02 picomoles per minute per nanogram,fifty-fold lower,500 nM
B2,0.61^b picomoles per minute per nanogram,0.64 picomoles per minute per nanogram,0 picomoles per minute per nanogram,0 picomoles per minute per nanogram,4.16 picomoles per minute per nanogram,0 picomoles per minute per nanogram,–,–
B3,0.41 picomoles per minute per nanogram,0.40 picomoles per minute per nanogram,0 picomoles per minute per nanogram,0 picomoles per minute per nanogram,1.97 picomoles per minute per nanogram,0 picomoles per minute per nanogram,–,–
B4,0.80^b picomoles per minute per nanogram,0.71 picomoles per minute per nanogram,0 picomoles per minute per nanogram,0 picomoles per minute per nanogram,1.91 picomoles per minute per nanogram,0 picomoles per minute per nanogram,–,–
